The record followed here is PMC8514580, “Insight into the interaction between the RNA helicase CGH-1 and EDC-3 and its implications” (Scientific Reports, 2021).

Common to all, as to assay: ITC; ligand (peptide or CAR-1 fragment, 0.5 mM) injected into CGH-1_(248-420) or mutant (0.05 mM) in the cell; 20 °C; Buffer B (20 mM Tris-HCl pH 7.5, 150 mM NaCl); one-binding-site model
Common to all, as to conditions: both partners purified

Assay [1] concerns the target T1, CGH-1_(248–420) F261A (C. elegans, UniProt Q95YF3 248-420, F261A).
T1 construct: Mutant of m1 made with the MutanBEST kit; source: E. coli Gold (DE3), purified (Ni-chelating resin, SEC Superdex 75)
T1 sequence (looked up): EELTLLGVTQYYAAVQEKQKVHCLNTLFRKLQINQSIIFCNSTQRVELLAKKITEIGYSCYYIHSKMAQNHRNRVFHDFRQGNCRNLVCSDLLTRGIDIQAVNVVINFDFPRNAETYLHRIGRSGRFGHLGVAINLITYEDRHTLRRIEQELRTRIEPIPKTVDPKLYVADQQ

Assay [2] concerns the target T2, CGH-1_(248–420) V262A (C. elegans, UniProt Q95YF3 248-420, V262A).
T2 construct: Mutant of m1 made with the MutanBEST kit; source: E. coli Gold (DE3), purified (Ni-chelating resin, SEC Superdex 75)
T2 sequence (looked up): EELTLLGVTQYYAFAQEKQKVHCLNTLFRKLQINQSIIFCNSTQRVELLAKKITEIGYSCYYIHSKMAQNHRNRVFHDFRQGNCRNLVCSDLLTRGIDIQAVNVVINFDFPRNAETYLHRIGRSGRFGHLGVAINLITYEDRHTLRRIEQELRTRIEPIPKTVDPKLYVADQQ

Assay [3] concerns the target T3, CGH-1_(248–420) E396A (C. elegans, UniProt Q95YF3 248-420, E396A).
T3 construct: Mutant of m1 made with the MutanBEST kit; source: E. coli Gold (DE3), purified (Ni-chelating resin, SEC Superdex 75)
T3 sequence (looked up): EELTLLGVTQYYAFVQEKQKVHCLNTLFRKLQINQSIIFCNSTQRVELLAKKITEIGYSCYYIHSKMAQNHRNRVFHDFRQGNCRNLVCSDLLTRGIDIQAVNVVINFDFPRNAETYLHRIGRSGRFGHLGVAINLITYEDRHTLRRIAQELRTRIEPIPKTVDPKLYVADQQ

The target in assay [4] is T4, CGH-1_(248–420) wild type (CGH-1 RecA2 domain) (C. elegans, UniProt Q95YF3 248-420).
T4 construct: Cloned into NdeI/XhoI of a modified pET-28a in which the thrombin cleavage site was removed; also called CGH-1_248-420^WT; source: E. coli Gold (DE3), purified (Ni-chelating resin, SEC Superdex 75)
T4 sequence (looked up): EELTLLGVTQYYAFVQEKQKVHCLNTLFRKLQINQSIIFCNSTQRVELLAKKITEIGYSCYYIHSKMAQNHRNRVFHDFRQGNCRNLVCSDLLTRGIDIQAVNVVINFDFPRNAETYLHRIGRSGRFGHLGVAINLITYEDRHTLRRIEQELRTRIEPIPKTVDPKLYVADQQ

The target in assay [5] is T5, CGH-1_(248–420) R393A (C. elegans, UniProt Q95YF3 248-420, R393A).
T5 construct: Mutant of m1 made with the MutanBEST kit; source: E. coli Gold (DE3), purified (Ni-chelating resin, SEC Superdex 75)
T5 sequence (looked up): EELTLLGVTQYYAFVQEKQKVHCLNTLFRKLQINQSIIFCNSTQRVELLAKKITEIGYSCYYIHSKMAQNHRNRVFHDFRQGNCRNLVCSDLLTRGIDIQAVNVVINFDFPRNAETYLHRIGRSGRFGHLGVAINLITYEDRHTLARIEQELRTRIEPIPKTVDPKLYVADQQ

In assay [6] the target is T6, CGH-1_(248–420) 4A mutant (His269, Cys270, Thr273 and Leu274 to Ala) (C. elegans, UniProt Q95YF3 248-420, His269 to Ala | Cys270 to Ala | Thr273 to Ala | Leu274 to Ala).
T6 construct: Mutant of m1 made with the MutanBEST kit; also called four-alanine mutant; source: E. coli Gold (DE3), purified (Ni-chelating resin, SEC Superdex 75)
T6 sequence (looked up): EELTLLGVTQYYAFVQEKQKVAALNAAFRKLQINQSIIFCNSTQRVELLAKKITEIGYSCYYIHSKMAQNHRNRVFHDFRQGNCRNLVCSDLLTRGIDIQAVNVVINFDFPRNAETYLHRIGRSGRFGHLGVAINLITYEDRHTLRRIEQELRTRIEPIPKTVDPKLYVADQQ

The target of assay [7] is T7, CGH-1_(248–420) K277A (C. elegans, UniProt Q95YF3 248-420, K277A).
T7 construct: Mutant of m1 made with the MutanBEST kit; source: E. coli Gold (DE3), purified (Ni-chelating resin, SEC Superdex 75)
T7 sequence (looked up): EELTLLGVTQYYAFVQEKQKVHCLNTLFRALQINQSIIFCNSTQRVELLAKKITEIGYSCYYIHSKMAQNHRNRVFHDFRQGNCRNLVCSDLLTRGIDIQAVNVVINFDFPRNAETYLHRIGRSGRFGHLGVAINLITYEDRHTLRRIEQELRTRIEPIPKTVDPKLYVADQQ

B1: PATR-1 peptide (CePATR-1_(30–67)) (peptide)
peptide: SDEDHNIFDDEFDAANDETFGGGLDNIGENAELENYAT
notes: PATR-1 (Pat1 ortholog), C. elegans, residues 30-67; Printed with free NH2 and COOH ends; also called PATR1_30-67^WT; CePATR-1 peptide; source: synthetic peptide (GL Biochem, Shanghai)
Broadly, the Kd is the constant that tells how readily two partners part at equilibrium. A higher Kd goes with a looser complex. As usually defined, the stoichiometry N is the number of molecules, sites or subunits per partner or assembly. As to B1, the Kd in assay [1] is 6.62 ± 1.05 µM; in assay [2], 4.94 ± 0.79 µM; in assay [3] it was 2.96 ± 0.34 µM; in assay [4] it was 2.13 ± 0.38 µM; in assay [5] it was 4.22 ± 0.62 µM; in assay [6], 2.06 ± 0.27 µM. The molecule also had a Kd in assay [7] of 4.43 ± 0.42 µM. In addition, the dH is -13 ± 0.7 kcal/mol in assay [1]; -17.3 ± 0.82 kcal/mol in assay [2]; -16.3 ± 0.47 kcal/mol in assay [3]; -15.8 ± 0.62 kcal/mol in assay [4]; -16.6 ± 0.69 kcal/mol in assay [5]; -15.4 ± 0.44 kcal/mol in assay [6]. Moreover, in assay [7], the dH was -17.2 ± 0.57 kcal/mol. In addition, the “stoichiometry N” value came to 0.76 in assay [1]; 0.84 in assay [2]; 0.93 in assay [3]; 0.88 in assay [4]; 0.8 in assay [5]; 0.79 in assay [6]. The “stoichiometry N” value in assay [7] was found to be 1.07.
